From PMC12648486, “A LisH-domain protein interaction map reveals a Lis1-ARIH2-dynein regulatory axis” (iScience, 2025) come the findings set out here.

The target in the assay is T1, MBP-ARIH2 (UniProt O95376 1-493).
T1 construct: RBR-type E3 ubiquitin ligase ARIH2, cloned in this study into an MBP-tagged Gateway vector; source: E. coli BL21 (DE3), purified (Dextran-Sepharose, maltose elution)
T1 sequence (looked up): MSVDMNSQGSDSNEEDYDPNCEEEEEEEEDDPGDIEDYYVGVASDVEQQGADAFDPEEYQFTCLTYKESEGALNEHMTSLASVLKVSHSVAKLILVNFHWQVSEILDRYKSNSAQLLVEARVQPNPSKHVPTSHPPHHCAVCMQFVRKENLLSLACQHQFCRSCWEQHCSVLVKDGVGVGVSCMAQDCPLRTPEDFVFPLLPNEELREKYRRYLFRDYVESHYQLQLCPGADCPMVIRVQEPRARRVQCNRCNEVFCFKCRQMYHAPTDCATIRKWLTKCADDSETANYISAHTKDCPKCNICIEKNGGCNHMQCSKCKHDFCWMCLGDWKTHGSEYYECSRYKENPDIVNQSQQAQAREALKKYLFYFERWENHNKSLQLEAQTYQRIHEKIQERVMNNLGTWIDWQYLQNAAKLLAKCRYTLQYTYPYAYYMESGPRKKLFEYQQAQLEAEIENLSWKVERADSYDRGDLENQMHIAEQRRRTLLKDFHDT
The assay is described as follows: pull-down; bacterially purified recombinant GST-tagged protein incubated with purified MBP-ARIH2; eluates immunoblotted with MBP antibody. The conditions noted are these: both partners purified. For orientation: Immunoblotting shows a protein as a band on a membrane.

B1: GST-Lis1 (natural protein, human, UniProt P43034 1-410, looked up)
chain: MVLSQRQRDELNRAIADYLRSNGYEEAYSVFKKEAELDVNEELDKKYAGLLEKKWTSVIRLQKKVMELESKLNEAKEEFTSGGPLGQKRDPKEWIPRPPEKYALSGHRSPVTRVIFHPVFSVMVSASEDATIKVWDYETGDFERTLKGHTDSVQDISFDHSGKLLASCSADMTIKLWDFQGFECIRTMHGHDHNVSSVAIMPNGDHIVSASRDKTIKMWEVQTGYCVKTFTGHREWVRMVRPNQDGTLIASCSNDQTVRVWVVATKECKAELREHEHVVECISWAPESSYSSISEATGSETKKSGKPGPFLLSGSRDKTIKMWDVSTGMCLMTLVGHDNWVRGVLFHSGGKFILSCADDKTLRVWDYKNKRCMKTLNAHEHFVTSLDFHKTAPYVVTGSVDQTVKVWECR
notes: Lis1 (PAFAH1B1), human, in a GST-tagged Gateway vector; source: E. coli BL21 (DE3), purified (Glutathione Sepharose)
On to B1, for which the binding result is recorded as “binds”.
